{
  "source": "patent US9395368B2",
  "about": "“Methods, agents and peptides for inducing an immune response to matrix metalloproteinase-2 expressing tumors” (New York University, priority 2010, dated 2016)",
  "molecules": {"B1": {"name": "active MMP-2: Purified human MMP-2 (mixture of the proenzyme (50%) and the active form (50%)) purchased from Biomol (protein, listed as Homo sapiens)", "chain": "MEALMARGALTGPLRALCLLGCLLSHAAAAPSPIIKFPGDVAPKTDKELAVQYLNTFYGCPKESCNLFVLKDTLKKMQKFFGLPQTGDLDQNTIETMRKPRCGNPDVANYNFFPRKPKWDKNQITYRIIGYTPDLDPETVDDAFARAFQVWSDVTPLRFSRIHDGEADIMINFGRWEHGDGYPFDGKDGLLAHAFAPGTGVGGDSHFDDDELWTLGEGQVVRVKYGNADGEYCKFPFLFNGKEYNSCTDTGRSDGFLWCSTTYNFEKDGKYGFCPHEALFTMGGNAEGQPCKFPFRFQGTSYDSCTTEGRTDGYRWCGTTEDYDRDKKYGFCPETAMSTVGGNSEGAPCVFPFTFLGNKYESCTSAGRSDGKMWCATTANYDDDRKWGFCPDQGYSLFLVAAHEFGHAMGLEHSQDPGALMAPIYTYTKNFRLSQDDIKGIQELYGASPDIDLGTGPTPTLGPVTPEICKQDIVFDGIAQIRGEIFFFKDRFIWRTVTPRDKPMGPLLVATFWPELPEKIDAVYEAPQEEKAVFFAGNEYWIYSASTLERGYPKPLTSLGLPPDVQRVDAAFNWSKNKKTYIFAGDKFWRYNEVKKKMDPGFPKLIADAWNAIPDNLDAVVDLQGGGHSYFFKGAYYLKLENQSLKSVKFGSIKSDWLGC"}},
  "system": "Cord blood-derived CD4+/CD25- cells",
  "test": "Priming of naive CD4+ T cells to Melan-A/MART-1 or NY-ESO-1 with DCs pre-incubated with MMP-2",
  "type": "cell-based, human",
  "procedure": "(A) Cord blood-derived CD4^+/CD25^− cells were stimulated with autologous poly(I:C)-matured DCs pulsed with overlapping peptides spanning either Melan-A/MART-1 or NY-ESO-1. Prior to poly(I:C) addition, DCs were incubated with or without MMP-2 (active or heat-inactivated) for 1 h. MMP-2 enzymatic activity was controlled (FIG. 13C-D). After 15 days, CD4^+ T cells were stimulated with the Melan-A/MART-1 or NY-ESO-1 peptide pools (2 μM) for 6 h before intracellular staining of cytokines. Percentages of antigen-specific CD4^+ T cells, secreting indicated cytokines, are represented for all donors. (B) Contour plots showing percentages of cytokine-producing CD4^+ T cells are shown for representative donor CB45 primed to Melan-A/MART-1. Percentage of secreting cells upon peptide stimulation was considered specific/positive when it exceeded by more than twofold the background (cytokine-secreting cells in the absence of stimulation) and had more than 0.5% of responding cells (after background subtraction) for at least one cytokine. For each cytokine, 2 paired t-tests were used to compare priming in the presence of active MMP-2 to either priming in the absence of active MMP-2 or with HI MMP-2. The Bonferroni adjustment was used for multiple comparisons. P values≦0.025 (*) were considered statistically significant using a Bonferroni correction for 2 comparisons.\nT Cell culture, stimulation and priming. Peripheral blood mononuclear cells (PBMCs) were purified from healthy donor-(HD) or cord blood donor-(CB) derived buffy coats (New York Blood Center) by Ficoll-Paque Plus (GE Healthcare) centrifugation. CD4^+/CD25^− cells were enriched (>90%) by magnetic cell sorting (Miltenyi Biotec) and primed/stimulated for 12-15 days either with irradiated (35Gy) autologous CD4^− cells or with autologous mature DCs in IMDM (GIBCO) supplemented with 1 mM HEPES (Life Technologies), 2 mM L-glutamine (Sigma), streptomycin (100 UI/mL)/penicillin (100 μg/mL) (Sigma) and 5% heat inactivated pooled human serum (PHS; Valley Biomedical) in the presence of rhIL-2 (10 UI/mL) and IL7 (5 ng/mL) (R&D Systems). Antigen presenting cells (CD4^− cells or DCs) were loaded either with peptides (2 μM) or with the MMP-2 protein (10 μg/mL) for 2 and 5 h, respectively. DCs were matured using the TLR3 agonist poly(I:C) at 5 μg/mL/10^6 DCs (Amersham). To generate T cell clones, we originally relied on our published methodology (Godefroy et al., 2006; Godefroy et al., 2007; the entire contents of each of which is incorporated herein by reference), involving enrichment of IFNγ-secreting cells upon short-term culture and peptide stimulation to generate MMP-2 responsive clones. Briefly, CD4^+ T cells were stimulated by CD4^− cells irradiated and pulsed with peptides for 12 days in the presence of rhIL-2 and rhIL-7. CD4^+ T cells were then restimulated with peptides for 3 hours before capturing IFNγ-secreting specific cells using a bispecific antibody coating T cells and capturing produced IFNγ. Positive cells were purified magnetically before being cloned. Although MMP-2-specific cells could be isolated, it was realized that IFNγ secretion was marginal compared to their secretion of IL-4 and TNFα. IFNγ-secreting cells in response to MMP-2 peptide pool were enriched by cytokine-guided magnetic cell sorting (Miltenyi Biotec) as described above and cloned the following day by limiting dilution in the presence of irradiated allogeneic PBMCs, 1 μg/mL phytohemagglutinin-L (Sigma) and 150 UI/mL rhIL-2. Tumor infiltrating lymphocytes (TILs) were provided by Pr. F. Jotereau and B. Dréno. They were obtained from tumor-invaded lymph nodes of melanoma patients (stage Mb) and expanded ex vivo. These patients received autologous TILs and IL-2 infusions in a clinical trial (Labarriere et al., 2002). This protocol was approved by the Institutional Ethics Committee and registered with regulatory state authority in France (Nantes). […]",
  "key": {"[1]": {"settings": "DCs pre-incubated before poly(I:C) maturation"}},
  "data": [
    {"molecule": "B1", "values": [
      {"measurement": "antigen-specific CD4+ T cells secreting IL-4, mean", "setting": "10 cord blood donors, 15 days", "result": 2.50, "unit": "%"},
      {"measurement": "antigen-specific CD4+ T cells secreting IL-13, mean", "setting": "10 cord blood donors, 15 days", "result": 0.08, "unit": "%"},
      {"measurement": "IL-4, mean of differences versus priming without MMP-2", "setting": "[1]", "result": 1.85},
      {"measurement": "IL-13, mean of differences versus priming without MMP-2", "setting": "[1]", "result": 0.07},
      {"measurement": "production of type-1 cytokines (IFNγ and IL-2) upon peptide re-stimulation", "setting": "Melan-A/MART-1- and NY-ESO-1-specific primed CD4+ T cells", "result": "failed to produce"}
    ]}
  ]
}
